Series [1] has as its system exposed keratin proteins on damaged hair. Briefly: keratin binding domain absorption test (FITC-conjugated peptides, fluorescence microscopy), damaged hair. As to conditions: FITC conjugate, 37° C. for 1 hr, hair washed 10 times. The source says: (§1) The peptide-FITC conjugate is not seen on healthy hair because the hydrophobic surface of healthy hair cuticles prevents binding of the peptide. However, peptide-FITC conjugates are shown to be absorbed in damaged hair because the peptide bonds to exposed keratin proteins on damaged hair shafts. […] This is due to binding of the C-terminal cysteine present on Peptide 2 to the exposed keratin protein on the damaged hair.
To provide damaged hair for treatment using the exemplary engineered keratin-binding construct, hair was incubated with 10% H2O2(v/v) in 0.1M Na2CO3/NaHCO3 (pH 9.0) buffer at 50° C. for 1 hr, and then the hairs were washed in deionized (DI) water.
(§2) Samples of healthy and damaged hair were incubated with the FITC-conjugated peptides at 37° C. for 1 hr, followed by washing the hair 10 times (FIG. 5). The results are provided in the images obtained by fluorescent microscopy shown in the right part of FIG. 5.

The nature of series [2]: keratin binding domain absorption test (FITC-conjugated peptides, fluorescence microscopy), healthy hair. The settings on record: FITC conjugate, 37° C. for 1 hr, hair washed 10 times. The method, then: as §1, §2
The next series concerns NIH3T3 fibroblast cell. Briefly: MTT assay, NIH3T3 fibroblast cell viability. In kind it is cell-based. The settings on record: in the presence of the protein. (In general: Tetrazolium dyes change colour on reduction, which living cells bring about.)
The next series deals with damaged hair. The experiment in a line: affinity of keratin binding protein tagged with a fluorescent dye for damaged and undamaged hair (fluorescence microscopy). The method, then:
Keratin binding protein tagged with a fluorescent dye was incubated with damaged and undamaged (virgin) hair, and observed by fluorescence microscopy. The results are depicted in FIG. 8, with microscopy images shown on the left and intensity of corrected fluorescence shown on the right. Corrected fluorescence=Integrated Density−(selected area X Mean fluorescence of background).
The damaged hair incubated with keratin binding protein tagged with a fluorescent dye for varying amounts of time was then subjected to washing with shampoo.

The subject of the next series is IL-6 in fibroblast cells. Briefly: IL-6 ELISA (immune response). In kind it is cell-based. As to conditions: LPS positive control. The method, then: (§3) Keratin-binding protein (B22) was tested for immune response by performing an IL-6 ELISA and IFN-γ ELISA. The effects of KBP and KBP-lipid conjugate on the immune response was assessed by measuring levels of IL-6 and IFN-γ in fibroblast cells. No protein was added to the cells as a negative control. Lipopolysaccharides (LPS) were used as a positive control.

In series [3] the test system is IFN-γ in fibroblast cells. Briefly: IFN-γ ELISA (immune response). As to conditions: LPS positive control. The class given is cell-based. The protocol:
as §3
(ELISA stands for enzyme-linked immunosorbent assay.)

Series [4] is described as follows: solubility test in oil-based solvents. The class given is physicochemical. As to conditions: 2.5 mg protein/10 mL solvent. The method, then: Solubility tests were performed by adding keratin-binding protein to 7 different solvents at concentrations of 2.5 mg protein/10 mL solvent. […] KBP was soluble in polysorbate 40 (Tween® 40) and Solubilisant CLR, with only a few visible particles present in solution.

No end group written: not given here.

With “Peptide 2: same keratin binding domain as peptide 1 plus a C-terminal cysteine, AKTKKVELFPKC; SEQ ID NO: 5”, in series [1], the “affinity to damaged hair compared to Peptide 1” value was “higher affinity” and the “binding affinity to the damaged hair” value is “strong binding affinity”.

Take “peptide1-FITC: Peptide1 (AKTKKVELFPK) conjugated to fluorescein isothiocyanate (FITC) (also: FITC conjugate, site not given here)”: the “binding to healthy hair” value in series [2] is on record as “Neither peptide1-FITC nor peptide1-FITC is shown as binding”.

B1: KBP: engineered keratin-binding protein without tyrosine residues; keratin-binding domain SEQ ID NO: 1 repeated three times, expressed in E. coli (protein)
chain: MAKTHHHHHHQGQVQHLQAAFSQYKKVELFPKGGQGQVQHLQAAFSQYKKVELFPKGGQGQVQHLQAAFSQYKKVELFPKGGYYYYC
Consider B1, for which the “NIH3T3 fibroblast cell viability” value in the series on NIH3T3 fibroblast cell is given as “increased”. Also, the “binding to damaged hair versus healthy hair” value with damaged hair is recorded as “binds more readily to damaged hair”. Also, the “production of IL-6” value with IL-6 in fibroblast cells is “No production”. The “production of IFN-γ” value in series [3] is “No production”. Also, in series [4], the “solubility in butylene glycol” value is given as “not soluble”, the solubility in glycerin entry is on record as “not soluble”, the “solubility in hexylene glycol” value was “not soluble” and the “solubility in polysorbate 20 (Tween® 20)” value was “not soluble”. For the same molecule, in series [4] (only a few visible particles), the “solubility in Solubilisant CLR” value is on record as “soluble” and the “solubility in polysorbate 40 (Tween® 40)” value was “soluble”.

B2: KBPY: keratin-binding protein with tyrosine residues, SEQ ID NO: 2: MAKT-6His-three keratin-binding domain repeats-YYYYC (protein)
chain: B1 chain
For the molecule B2, the “NIH3T3 fibroblast cell viability” value with NIH3T3 fibroblast cell was “increased”.

The record behind these values is patent US20190314260A1, “ENGINEERED TREATMENTS FOR HAIR REPAIR AND LONG-LASTING COLOR RETENTION” (Massachusetts Institute of Technology, priority 2018, published 2019).
